Data set [1] addresses T1, p204 HINab (Mus musculus, UniProt P0DOV2 216-619).
T1 sequence: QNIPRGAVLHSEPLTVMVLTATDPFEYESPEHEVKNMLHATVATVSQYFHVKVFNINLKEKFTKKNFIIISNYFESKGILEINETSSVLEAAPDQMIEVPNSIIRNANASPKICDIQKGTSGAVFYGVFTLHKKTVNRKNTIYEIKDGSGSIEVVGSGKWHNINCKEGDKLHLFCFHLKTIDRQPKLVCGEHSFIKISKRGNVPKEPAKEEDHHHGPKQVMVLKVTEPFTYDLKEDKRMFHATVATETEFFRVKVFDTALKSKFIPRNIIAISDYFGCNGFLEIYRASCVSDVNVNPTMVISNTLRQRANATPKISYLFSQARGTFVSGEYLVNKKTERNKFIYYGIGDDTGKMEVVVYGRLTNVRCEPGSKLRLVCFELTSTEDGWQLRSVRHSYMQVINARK
Description: X-ray crystallography.

Data set [2] addresses T1, p204 HINab. Description: fluorescence polarization.
The target in data set [3] is T2, p204 HINa (Mus musculus, UniProt P0DOV2 216-417).
T2 sequence: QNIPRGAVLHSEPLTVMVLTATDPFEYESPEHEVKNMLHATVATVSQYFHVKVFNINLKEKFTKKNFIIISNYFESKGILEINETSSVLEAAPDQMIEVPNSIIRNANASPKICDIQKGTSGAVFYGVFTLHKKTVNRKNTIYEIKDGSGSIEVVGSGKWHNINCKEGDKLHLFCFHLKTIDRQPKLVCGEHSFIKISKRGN
Description: fluorescence polarization.

Data set [4] has as its target T3, p204 HINb (Mus musculus, UniProt P0DOV2 427-619).
T3 sequence: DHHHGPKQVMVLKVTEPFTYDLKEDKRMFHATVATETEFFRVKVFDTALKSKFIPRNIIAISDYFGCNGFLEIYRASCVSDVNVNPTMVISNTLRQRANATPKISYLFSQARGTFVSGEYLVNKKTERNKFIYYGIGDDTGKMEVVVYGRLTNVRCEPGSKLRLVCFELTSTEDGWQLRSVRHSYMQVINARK
Description: fluorescence polarization.

B1: 16 mer dsDNA (crystal) (dsDNA)
DNA 1: CCATCAGAAAGAGAGC
DNA 2: GCTCTCTTTCTGATGG
In the case of B1, in data set [1], the binding result is reported as “binds”.

B2: 30 mer dsDNA (dsDNA)
DNA 1: CCATCAGAAAGAGGTTTAATATTTTTGTGA
DNA 2: TCACAAAAATATTAAACCTCTTTCTGATGG
For B2, the values for the Kd in data set [2], in data set [3] and in data set [4] were 13.5 ± 2.39 µM, 193 ± 77 µM and 157 ± 37.2 µM, respectively.

B3: 20 mer dsDNA (dsDNA)
DNA 1: TAAGACACGATGCGATAAAA
DNA 2: TTTTATCGCATCGTGTCTTA
In turn, B3 displayed a Kd in data set [2] of 156 ± 37.5 µM.

(Values after PMC7969034.)
